Legend:
Format in all cases: cell-based
gene editing with Cas9 = assay: Screen of 322 new SSAP proteins, gene editing activity with Cas9 (Table 5); set-up: Cas9 with SSAP activity: scale not given here
In short: (§1)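 Read-out is gene editing activity. Candidates come from sequence data mining, are made synthetically, and are tested alongside either nuclease-active Cas9 or catalytically dead dCas9.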

[1] = test system: gene editing with Cas9 and dCas9; assay: Screen of 322 new SSAP proteins, activity across all experiments (Cas9 and dCas9, Table 5); set-up: scale not given here
In short: as §1

gene editing with dCas9 = assay: Screen of 322 new SSAP proteins, gene editing activity with dCas9 (Table 5); set-up: dCas9 with SSAP activity: scale not given here
In short: as §1

Row | Molecule | Cas9 with SSAP activity (gene editing with Cas9) | Cas9 with SSAP activity (normalized) (gene editing with Cas9) | Activity across all experiments [1] | dCas9 with SSAP activity (gene editing with dCas9) | dCas9 with SSAP activity (normalized) (gene editing with dCas9)
1 | SSAP_185: SEQ ID NO: 354; Pirellula sp. SH-Sr6A (protein, listed as Pirellula sp.) SEATKEAKPETAIAKKPNGIKDWLKSDALKTQIASVAPKHMAPERVMRIALNAVSRTPKLADCTPESFMRCLLDLSSWGLEPDGRHAHLIPYGTECTLVLDYKGLVTLAYRSGWVKKIHADVVFEGDIFVYSLGTVCQHIPWEFRDDANKPEHKGHFRAAYCVVTMADGIEKHEVMTASEIDAIKAKSRSGNSGPWKDHYTEMAKKTVYRRASKWLPLSPEQADAMERDDDRIIDAVSVAVTQRLSKAAMPLIGANETGDTE | −1.825 | −0.708 | −5.013 | −8.201 | −2.012
2 | SSAP_83: SEQ ID NO: 252 (protein) TLQAVCPTQDKAVESQLDQTKFELIKRTICKGTTDDEFQLFIHACKRTGLDPFMRQIFAVKRWDSAERREVMTIQTGIDGYRLIADRTGRYAPGRDAEFGYDAHGGLRWAKAYVKKMTPDGHWHEISATAFWTEYVQTTKDGRPTVFWMKKGHVMLSKCAEALALRKTFPAELSGIYTQEEMAQTMSLPDTKGDSQTIGSDKAYEIERSIDNDPEFKTQLLTRLQRAFGCKSFSDLPQDQFKNVKKVIENHQIKEKIA | −0.905 | −1.189 | −5.182 | −9.459 | −1.391
3 | SSAP_241: SEQ ID NO: 410; Antribacter gilvus (protein, listed as Antribacter gilvus) SADVVIRQHATELTSVLPSHLAEKGDGWLNAAVAAVRKDRNLWNAANSDPGAVMNALAEAARLGLQPGSKEYYLTVRGGKVLGIVGYQGEIELMYRAGAVSSVIVEPVFERDGFEYTPGVDDRPKHRIDWDADDRGPIRLAYAYAVMKDGAVSKVVVVNKTRIRRAKDASATAGKSHSPWTSDEVAMWMKTAAHDLAKWVPTSAEYIREQLRAVKEVEAEPARASDPRPEPVHIVEAQILDEDPFPNAPEDGAA | −0.640 | −3.561 | −5.085 | −9.530 | −2.720
4 | SSAP_312: SEQ ID NO: 481; Gallionellaceae bacterium CG1_02_56_997 (protein, Gallionellaceae bacterium CG1_02_56_997) GRKEVERIRDGSRGYQAAKKYKKESTWDTDFVAMGLKTAIRRICKFLPKSPELATALAMDEQAGRQNLNLDDVINGSYTPVVDKDTGEIVDVADGGKTGNSNAATSTKLEKLEKIVAALRDANSVEALDEIYIRAEGDLDDANLEIAMREYRKCKDAISNSLI | −0.905 | −0.436 | −0.501 | −0.097 | −0.073
5 | SSAP_303: SEQ ID NO: 472; Paenibacillus sp. BK033 (protein, listed as Paenibacillus sp.) AANTQLITIHNNLEKLIEAKKDAMPQGFNKTRFIQNCMTVLQDTYGIEKCEPTTVARTLLKGAFLGLDFFNKECYAIPYGASMNFQTDYKGERKLAKKYSVRKVKDIYAKLVRAGDVFEENITDGQQTIQFAPVPFNNGDIVGAFAVVLFHDGGMLYETMSIAEMEHIKENYSKKSKDTGKFSKAWEVSTGEMYKKTVLRRLCKNIELDFDTIEQARAFEDAADVDFNKKTAPQQTSPLNVVEAEYEVVNDGSATEAQSE | 1.686 | 2.052 | −3.683 | −9.053 | 
6 | SSAP_177: SEQ ID NO: 346; Geomicrobium sp. JCM 19055 (protein, listed as Geomicrobium sp.) GYKGMIDLARRSGHIKSIYAHTVHANDEFEYELGLEPKLVHKPATGDRGNMEYAYAVAHFVDGGYQFEVFSHHDIEQVKKRSKAGNFGPWKTDYEEMAKKTVVRRMFKYLPISIEIQQHASQDETVRRDITEEAEKVDNIIDLPNYEDPNNIDVPDEEQDEQKDEKQKQQGSAEEIALDFK | −0.293 | −0.508 | −0.236 | −0.179 | −0.069
7 | SSAP_146: SEQ ID NO: 315; Mobilisporobacter senegalensis (protein, listed as Mobilisporobacter senegalensis) KDIKSALEKKVDKQDVKLTKSMSITDMIKALEPEIKKALPSVITPERFTRMALSAVNNTPKLAECSQMSFLAALMNAAQLGLEPNTSLGQAYLIPYQNKGKLECQFQLGFKGMIDLVYRNEKVQTIQAHCVYEEDYFEYELGLDSKLAHKPALANRGKMILVYAFFKLENGGFGFEVMSKEDIDIHALKYSKGYSSQYSPWKSNYEDMAKKTVIKKVLKYAPLKIDFQRAISVDETVKAEISIDMSEVQNEEIIDGQCTDVGEIEEK | −0.626 | −2.428 | −5.040 | −9.454 | −1.210
8 | SSAP_207: SEQ ID NO: 376; Mycobacterium sp. 1245499.0 (protein, listed as Mycobacterium sp.) TTQPEYKPVAQGADKQMTTGKLLKMLEPEIGRALPKGMDPDRICRLVMTEVRKNPMLTQCTQESFAGALLTASALGLEPGVNGEAWLVPYRDRKRGIVECQFIMGYNGVAKLFWQSPHADRLDAQLVCANDHFRYVKGLSPILEHVESDGDRGDPIAYYAIVGVKGAQPMWDVFKPEAIAQLRGGRVGTKGDIDDPQRWMERKTALKQVLKLAPKSTRLDLAIRADERSGSDLYKSQGMEVHAIEPGFIETEAEPETQEQ | −4.938 | −0.798 | −6.496 | −8.053 | −1.345
9 | SSAP_33: SEQ ID NO: 202 (protein) TTNQVVTHKNFFNAPNVQKSFDDVWKGAGVQFATSILSVIQGNASLKSASNESIMTSAMKAAVLNLPIEPSLGRAYLVPYKGQVQFQLGYKGLIELAQRSGKYKSINAGPVYKSQFVSYDPLFEELTLDFTQPQDEVIGYFASFSLLNGFRKLTYWTKAEVEAHGKKFSKTFGNGPWKTDFDAMARKTVLKHILSIYGPLSVEMQTGMQNDESENDNATRDIKTAEPVNADQQLLEDLMNVDTETGEILEEVSELKDNGELDLKYEDPNAR | 1.307 | 0.578 | −3.528 | −8.362 | −1.043
10 | SSAP_118: SEQ ID NO: 287; Kribbella albertanoniae (protein, listed as Kribbella albertanoniae) ATADSVREELARSKEVERTQPKASNADNVIGLINRSLPEIAKALPGHVKPERIARIATTAVRVTPKLADCTQASFLGALLTAAQLGLEPNTPTGEAYLLPFGRNVQLIIGYRGYIKLANQSGQVRNIMAMTVYENDHFDYKYGSNPFLEHTPTLGQDPGPVKCWYACATFTNGGTNFVVLDKFKVEGYRARARSKDDGPWVTDYDAMARKTCIRRLAPYLPMSVELAQAMQVDEEVTAFTPGVSDPEVLATLAGVDTGTGEVQQ | −9.467 |  | −9.467 | −9.467 | 
11 | SSAP_201: SEQ ID NO: 370; Streptomyces reniochalinae (protein, listed as Streptomyces reniochalinae) SQISNAVAKRDNSPGAMVQQYKADFSTVLPDHVKPDTWVRLAQGVLRRDKNLAQAAERNPGSLMTALLDCARLGHEPGTESFYLVPFGGEVQGIEGYRGVVERMYRAGAIASVKAEVVCQGDDFDYQPDMDKPRHRVDWFGDRGPIVGAYAYAIFKDGSTSRVAVINRAYIDKVKKESKGSDRATSPWMKWEEQMVLKTVAKRLEPWVPTSNEWRREQLRAAREVANEPTPPTTPAPPAPEQVDPDTGEVIDGELVDDTPTQ | −0.461 | −0.195 | −4.249 | −8.036 | −1.510
12 | SSAP_124: SEQ ID NO: 293; Clostridium sp. AM58-1XD (protein, listed as Clostridium sp.) SVDVKNELEKRAAGTVNPAVKLTKNMTIVDMVRALEPEIKRALPTILTPERFMRMALSAINNTPELADCTPMSFIAALMNAAQLGMEPNTPLGQAYLIPYKNKGTLECQFQIGYKGLIDLAYRTGLIQVIQAQTVREFDSFEYQYGLDSRLTHRPGDGERGEITYIYGLFKLTNGGYGFEVSNKADMDAFAEKYSKSFGSRFSPWKENYEDMAKKTVIKRALKYAPVSSDFQKALSMDETIKSELSIDMSEIRNECQVEASGQEGAA | −5.698 | −1.064 | −7.244 | −8.790 | 
13 | SSAP_284: SEQ ID NO: 453; Paenibacillus sp. VMFN-D1 (protein, listed as Paenibacillus sp.) AKALLENKLQERAAGASTPSTQGTSLKALLNSPAIKKRFDELLDKRSAQYMTSIVNLYNSDAMLQKAEPMSVISSCIVAATLDLPVDKNLGYAWIVPYSGKAQFQLGYKGYIQLALRTGQYKAINVIEVYEGELVKWNPLTEALELDFEKRKSDAVIGYAGYFELINGFRKSVYWTREQIESHRKKFSKSDFGWKKDYDAMAKKTIIRNMLSKWGILSIEMQDAYSKEIEAIPPLNNENEEDPPIDLTPEDYRVGDEPQDGKEQGEMNFE | −1.673 | −1.388 | −4.873 | −8.073 | −1.172

Reference: patent US20250034594A1, “RNA-GUIDED GENOME RECOMBINEERING AT KILOBASE SCALE” (THE BOARD OF TRUSTEES OF THE LELAND STANFORD JUNIOR …, priority 2021, published 2025)
